Data: IntAct's records for PubMed 19542283

B1: Chemotaxis protein CheA (Escherichia coli (strain K12)), P07363-2 (parent)
chain: MQEQLDAYKQSQEPDAASFDYICQALRQLALEAKGETPSAVTRLSVVAKSEPQDEQSRSQSPRRIILSRLKAGEVDLLEEELGHLTTLTDVVKGADSLSAILPGDIAEDDITAVLCFVIEADQITFETVEVSPKISTPPVLKLAAEQAPTGRVEREKTTRSNESTSIRVAVEKVDQLINLVGELVITQSMLAQRSSELDPVNHGDLITSMGQLQRNARDLQESVMSIRMMPMEYVFSRYPRLVRDLAGKLGKQVELTLVGSSTELDKSLIERIIDPLTHLVRNSLDHGIELPEKRLAAGKNSVGNLILSAEHQGGNICIEVTDDGAGLNRERILAKAASQGLTVSENMSDDEVAMLIFAPGFSTAEQVTDVSGRGVGMDVVKRNIQKMGGHVEIQSKQGTGTTIRILLPLTLAILDGMSVRVADEVFILPLNAVMESLQPREADLHPLAGGERVLEVRGEYLPIVELWKVFNVAGAKTEATQGIVVILQSGGRRYALLVDQLIGQHQVVVKNLESNYRKVPGISAATILGDGSVALIVDVSALQAINREQRMANTAA
partner: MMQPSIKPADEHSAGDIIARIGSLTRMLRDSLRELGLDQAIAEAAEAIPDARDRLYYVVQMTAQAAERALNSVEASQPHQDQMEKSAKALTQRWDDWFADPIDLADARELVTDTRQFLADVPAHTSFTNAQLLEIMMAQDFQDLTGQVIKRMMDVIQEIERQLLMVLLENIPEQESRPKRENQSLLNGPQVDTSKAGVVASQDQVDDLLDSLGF

Variants of: B1
Conditions: with chez_ecoli cheZ

Row | effect of a mutation on the interaction | Variant
1 | disrupting interaction strength | L26A
2 | disrupting interaction strength | L26S

The next lines start with the variant.

Row | Variant | effect of a mutation on the interaction
3 | Y21S | disrupting interaction strength
4 | I22S | disrupting interaction strength
5 | I22A | decreasing interaction strength
